Here are results for one molecule from US20200199241A1 (Chugai, published 2020).

Read-outs that look alike come from different tables or passages of the source.

For test [1], the target named is T1, human FcγRIIb (human, UniProt P31994 43-217, limits assumed).
T1 construct: also called FcγIIB
T1 sequence: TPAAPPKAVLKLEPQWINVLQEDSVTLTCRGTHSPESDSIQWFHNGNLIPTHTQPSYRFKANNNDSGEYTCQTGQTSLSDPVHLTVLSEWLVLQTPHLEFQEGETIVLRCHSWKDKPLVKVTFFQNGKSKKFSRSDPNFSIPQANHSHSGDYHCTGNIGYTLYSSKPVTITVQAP
Description: SPR (Biacore); ratio against IgG1. For orientation: SPR reads the build-up and loss of mass on a sensor chip optically.
Description: (§1) Next, interaction between these antibodies and FcγR was analyzed kinetically using the BIACORE™ T100 (GE Healthcare). The interaction was measured at a temperature of 25° C. using HBS-EP+ (GE Healthcare) for the running buffer. The Series S Sensor Chip CMS (GE Healthcare) was used after immobilizing Protein A by amine coupling. […] Antibody captured on the chip was washed by allowing 10 mM glycine-HCl (pH 1.5) to react following measurement. The chip regenerated in this manner was used repeatedly. The dissociation constant KD (mol/L) was calculated from the association rate constant ka (L/mol/s) and dissociation rate constant kd (l/s) as calculated by global-fitting the measurement results with a 1:1 Langmuir binding model using the BIACORE™ Evaluation Software.

For test [2], the target named is T1, human FcγRIIb. Nature of the test: SPR (Biacore); KD for FcγRIIaR divided by KD for FcγRIIb of the same antibody.
The target in test [3] is T1, human FcγRIIb. Nature of the test: SPR (Biacore); ratio against IgG1. The source holds these as a separate data set.
Test [4] has as its target T1, human FcγRIIb. Description: SPR (Biacore); ratio against parent IL6R-F11/IL6R-L.
Test [5] addresses T1, human FcγRIIb. Description: SPR (Biacore), antibody captured, FcγR as analyte.
Test [6] addresses T2, human FcγRIIa type H (human, UniProt P12318 36-217).
T2 construct: also called FcγRIIaH; FcγRIIa(H)
T2 sequence: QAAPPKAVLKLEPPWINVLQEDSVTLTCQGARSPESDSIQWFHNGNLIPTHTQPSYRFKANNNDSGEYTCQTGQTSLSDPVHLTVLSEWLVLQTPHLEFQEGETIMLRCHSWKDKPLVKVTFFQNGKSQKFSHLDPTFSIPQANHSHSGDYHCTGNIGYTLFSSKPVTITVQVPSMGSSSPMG
Nature of the test: SPR (Biacore), binding amount relative to IL6R-BF648/IL6R-L = 100.

Test [7] concerns the target T3, human FcγRIa (human, UniProt P12314 16-292, limits assumed).
T3 construct: also called CD64
The test is described as above.

The target of test [8] is T4, human FcγRIIa type R (human, UniProt P12318 36-217).
T4 construct: also called FcγRIIaR; FcγRIIa(R)
T4 chain: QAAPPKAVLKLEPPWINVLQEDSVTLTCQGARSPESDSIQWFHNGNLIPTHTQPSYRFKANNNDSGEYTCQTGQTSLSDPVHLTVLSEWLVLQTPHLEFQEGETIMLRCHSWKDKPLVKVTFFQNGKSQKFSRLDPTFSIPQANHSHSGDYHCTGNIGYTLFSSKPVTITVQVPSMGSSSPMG
Described as above.

Test [9] addresses T1, human FcγRIIb. Described as above.
The target in test [10] is T5, human FcγRIIIa type V (human, UniProt P08637 17-208, limits assumed).
T5 construct: also called FcγRIIIaV; FcγRIIIa(V)
T5 sequence (P08637 other isoform, or with tags, fused parts or gaps limits assumed): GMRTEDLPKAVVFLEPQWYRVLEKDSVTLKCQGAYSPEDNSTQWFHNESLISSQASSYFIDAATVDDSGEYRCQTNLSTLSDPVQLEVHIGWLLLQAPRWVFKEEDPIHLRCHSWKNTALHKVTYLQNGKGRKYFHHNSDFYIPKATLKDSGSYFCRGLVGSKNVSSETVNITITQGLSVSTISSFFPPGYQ
Described as above.

Test [11] concerns the target T2, human FcγRIIa type H. Description: SPR (Biacore), antibody captured, FcγR as analyte.
For test [12], the target named is T3, human FcγRIa. Description: SPR (Biacore), antibody captured, FcγR as analyte.
Test [13] deals with T4, human FcγRIIa type R. Description: SPR (Biacore), antibody captured, FcγR as analyte.
Test [14] deals with T1, human FcγRIIb. Description: SPR (Biacore), antibody captured, FcγR as analyte. The source holds these as a separate data set.
Test [15] addresses T5, human FcγRIIIa type V. Description: SPR (Biacore), antibody captured, FcγR as analyte.
For test [16], the target named is T1, human FcγRIIb. Nature of the test: SPR (Biacore); KD for FcγRIIaH divided by KD for FcγRIIb of the same antibody.
In test [17] the target is T1, human FcγRIIb. Description: SPR (Biacore), antibody captured, FcγR as analyte. This is another data set of the same source.
Description: as §1

T3 sequence (P12314 16-292 limits assumed): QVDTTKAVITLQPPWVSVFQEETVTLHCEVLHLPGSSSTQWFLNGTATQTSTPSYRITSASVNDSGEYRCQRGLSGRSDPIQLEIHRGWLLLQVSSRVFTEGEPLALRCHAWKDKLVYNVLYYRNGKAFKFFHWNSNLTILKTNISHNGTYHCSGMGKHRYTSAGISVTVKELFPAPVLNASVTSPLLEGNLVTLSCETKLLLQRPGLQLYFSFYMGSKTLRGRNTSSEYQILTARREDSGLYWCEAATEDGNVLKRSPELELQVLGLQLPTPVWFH

B1: IL6R-G1d/IL6R-L (antibody, human IgG1)
heavy: not shown
light: DIQMTQSPSSLSASVGDRVTITCRASQDISSYLNWYQQKPGKAPKLLIYYTSRLHSGVPSRFSGSGSGTDFTFTISSLQPEDIATYYCQQGNTLPYTFGQGTKVEIK
notes: Anti-human IL-6 receptor antibody with the G1d constant region (human IgG1 without the C-terminal Gly-Lys); also called IgG1; IgG1 (IL6R-G1d)
In the case of B1, the “relative KD for FcγRIIb (KD for IgG1/KD for each variant)” value in the test with human FcγRIIb [1] and with human FcγRIIb [3] was 1 in each case. In addition, the “KD(IIaR)/KD(IIb)” value in the test with human FcγRIIb [2] is 0.4. Further, the “KD(IIb) of parent polypeptide/KD(IIb) of altered polypeptide” value with human FcγRIIb [4] turned out to be 2.6. Moreover, the Kd with human FcγRIIb [5] is 5300 nM; in the test with human FcγRIIa type H [11] it was 670 nM; in the test with human FcγRIa [12], 0.32 nM; with human FcγRIIa type R [13], 1000 nM; with human FcγRIIb [14], 2600 nM; with human FcγRIIIa type V [15], 350 nM. Further, binding in the test with human FcγRIIb [17] was characterised by a dissociation constant (Kd) of 5300 nM. The relative binding with human FcγRIIa type H [6] was 1670; in the test with human FcγRIa [7], 140; with human FcγRIIa type R [8] it was 650; with human FcγRIIb [9], 62; with human FcγRIIIa type V [10], 3350. For the same molecule, in the test with human FcγRIIb [16], the “KD(IIaH)/KD(IIb)” value turned out to be 0.3.

One may read the Kd as the equilibrium constant for the complex coming apart. The low end stands for higher affinity, the high end for lower affinity.
